The values that follow come from PMC2925307.

The stoichiometry N is the number of molecules, sites or subunits per partner or assembly.

The test addresses β subunit of Roseobacter denitrificans propionyl-coenzyme A carboxylase (Roseobacter denitrificans). Put plainly: crystal structure.

Consider “β subunit of Roseobacter denitrificans propionyl-coenzyme A carboxylase”, for which the stoichiometry N was 6.
